We go through 9 molecules from US6475997B1, “Methods of stimulating phagocytosis” (University of Pennsylvania, priority 1993, dated 2002).

Data set [1] relates to J32/FcγRIIA and J32-3.2/FcγRIIA T-cell transfectants. The data set is described as follows: inhibition of sEA phagocytosis in FcγRIIA T-cell transfectants. The format is cell-based. The settings on record: preincubation of the cells in 10 μg/ml. Here is the method:
The ability of these T-cell transfectants to phagocytose IgG-sensitized cells was assessed by incubation with IgG coated sheep erythrocytes (sEA). In both the wild type J32 and mutant J32-3.2 transfectants, a number of the cells were able to phagocytose the sEA (FIG. 12).
Considering that 70%-100% of the cells are expressing FcγRIIA in these transfectants, and presumably are mediating phagocytosis through this receptor, the levels of phagocytosis observed are relatively low when compared, for example, to COS-1 fibroblasts transfected with FcγRIIA (Indik et al, J. Clin. Invest. 88:1766 (1991)). […] Also phagocytosis was inhibited when the transfectants were incubated with sEA at 0° C. instead of 37° C.

Data set [2] has as its system COS-1 cells. The data set is described as follows: phagocytosis of IgG-coated cells (EA) by FcγRIIIA-transfected COS-1 cells, electron microscopy. The settings on record: COS-1 transfectants. The format is cell-based. The text has this: A FcγRIIIA encoding sequence was transfected into COS-1 cells to study its phagocytic function, determined by electron microscopy, in the absence of other Fc receptors. […] To delineate the region of the γ chain important in phagocytosis, two deletion mutants, were constructed, deleting the C-terminal 7 amino acids or deleting the C-terminal 22 amino acids which have a tyrosine containing conserved motif, Y-X2-L-X7-Y-X2-L (SEQ ID NO:10), present in several Ig gene super family receptors. […] The role of the conserved cytoplasmic tyrosines was then examined.
Further, single chain Fcγ receptor chimeras, consisting of the γ cytoplasmic domain and the a extracellular domain with the transmembrane domain of either FcγRIIIA-γ or FcγRI were able to mediate a phagocytic signal. However, single chain chimeras were not sufficient for full phagocytic activity.

Data set [3] relates to murine macrophages (P388D1). The data set is described as follows: phagocytosis by WT FcγRI transfected into murine macrophages. The format is cell-based. Here is the method:
Wild type (WT) and a mutant (MT) FcγRI, engineered to omit the cytoplasmic domain (CYT), were transfected into COS cells and murine macrophages (P388D1). The phagocytic potential of the transformed cells was assessed using IgG-coated RBCs (EA) and RBCs conjugated with Fab anti-human FcγR1 mAb (E-mAb). […] However, both WT and MT FcγRI induced phagocytosis in P388D1. Phagocytosis by WT FcγRI was inhibited by the tyrosine kinase inhibitor tyrphostin 23. Furthermore, activation of FcγRI on monocytes with Fab anti-FcγRI induced tyrosine phosphorylation of FcγRII, determined by anti-phosphotyrosine immunoblots. FcγR1 thus mediates a Ca^2+ signal through its cytoplasmic domain but not phagocytosis. FcγRI induced phagocytosis therefore requires elements, present in macrophages but absent in COS cells, that permit transmembrane communication.

The subject of data set [4] is FcγRII. Particulars: cited from earlier work.
Data set [5] concerns the target FcγRIIA (UniProt P12318). Kind of data set: cell-based or functional assay.
The target in data set [6] is FcγRIIA (UniProt P12318).
In data set [7] the target is γ chain (γ subunit of FcγRI and FcγRIIIA). The data set is described as follows: cell-based or functional assay.
Data set [8] has as its system splenic macrophage Fcγ receptors. The settings on record: in vivo; cited from earlier work.
For data set [9], the system named is splenic macrophage. The data set is described as follows: in vitro binding of EA by isolated splenic macrophages from treated animals. The format is in vivo, guinea pig. Particulars: animals treated 500 μg/kg for 5 days; sham 48±4%, p<0.001. On the procedure: (§1) Human recombinant macrophage colony stimulating factor (hrM-CSF) was studied in vivo using an established model in the guinea pig (Schreiber et al, J. Clin. Invest. 51:575 (1972)). Adult male guinea pigs were treated for 5 days with hrM-CSF (500 μg/kg) and splenic macrophage FcγR function and protein expression were assessed by i) the splenic macrophage clearance of IgG sensitized ^51Cr-guinea pig RBC (EA), ii) the in vitro binding of EA by isolated splenic macrophage, and iii) FACS analysis using monoclonal antibodies with specificity for the two guinea pig splenic macrophage Fcγ receptors, FcγR1,2 and FcγR2. Treatment with hrM-CSF enchanced the clearance of EA by 72±5%. In addition, a greater proportion of isolated splenic macrophages from hrM-CSF treated animals bound EA in vitro: 80±7% vs 48±4% (sham), p<0.001. In vivo hrM-CSF increased the expression of both splenic macrophages Fcγ receptors: 81±6% and 130±10% for FcγR1,2 and FcγR2, respectively. The lowest effective dose of hrM-CSF was 250 μg/kg, increasing the expression of FcγR1,2 by 26±3% and FcγR2 by 42±4%. […] The effect of hrM-CSF required at least 4 days of treatment.

The subject of data set [10] is IgG sensitized 51Cr-guinea pig RBC (EA). Kind of data set: splenic macrophage clearance of IgG sensitized 51Cr-guinea pig RBC (EA), established guinea pig model. The format is in vivo. Here is the method: as §1
The test system of data set [11] is FcγR1,2. Kind of data set: FACS analysis of splenic macrophage Fcγ receptor expression with monoclonal antibodies. The format is in vivo, guinea pig. Here is the method: as §1
The test system of data set [12] is FcγR2. The data set is described as above. The format is in vivo, guinea pig. On the procedure: as §1
Data set [13] deals with FcγRI and FcγRII. Particulars: cited from earlier work.

With `C=C1[C@@H](C)[C@H]2[C@H](Cc3ccccc3)NC(=O)[C@]23[C@H](OC(C)=O)/C=C/[C@@](C)(O)C(=O)[C@@H](C)C/C=C/[C@H]3[C@@H]1O` [cytochalasin-D], in [1], the “effect on phagocytosis of sEA” value was “abolished phagocytosis”.

Consider `N#CC(C#N)=Cc1ccc(O)c(O)c1` [tyrphostin 23], for which the “effect on FcγRIIIA phagocytosis” value in data set [2] is reported as “reversibly inhibited phagocytosis”. Moreover, the “effect on phagocytosis by WT FcγRI” value in data set [3] was “inhibited”.

Turning to “GM-CSF: hematopoietic growth factor, granulocyte-macrophage colony-stimulating factor”, in data set [4], the “effect on monocyte FcγRII expression and function” value was “selectively increase monocyte FcγRII expression and function”.

As for “IgG on IgG-sensitized sheep red blood cells (EA) (antibody)”, in data set [5], the % phagocytic cells, J32-3.2/FcγRIIA bulk transfectants, experiment 2 was found to be 5%; the % phagocytic cells, J32-3.2/FcγRIIA bulk transfectants, experiment 3 amounted to 13%; the % phagocytic cells, J32-3.2/FcγRIIA bulk transfectants, experiment 4 came to 17%; the % phagocytic cells, J32-3.2/FcγRIIA bulk transfectants, experiment 6 amounted to 6%. Further, in data set [5], the % phagocytic cells, J32/FcγRIIA bulk transfectants, experiment 1 stood at 17%; the % phagocytic cells, J32/FcγRIIA bulk transfectants, experiment 2 worked out at 33%; the % phagocytic cells, J32/FcγRIIA bulk transfectants, experiment 3 was determined as 25%; the % phagocytic cells, J32/FcγRIIA bulk transfectants, experiment 4 is 32%. In data set [5], this molecule displayed a % phagocytic cells, J32/FcγRIIA bulk transfectants, experiment 5 of 31%; a % phagocytic cells, J32/FcγRIIA bulk transfectants, experiment 6 of 14%; a corrected phagocytic index (cP1), J32-3.2/FcγRIIA bulk transfectants, experiment 2 (erythrocytes ingested per 100 cells) of 7; a corrected phagocytic index (cP1), J32-3.2/FcγRIIA bulk transfectants, experiment 3 (erythrocytes ingested per 100 cells) of 21. Besides, in data set [5], the corrected phagocytic index (cP1), J32-3.2/FcγRIIA bulk transfectants, experiment 4 (erythrocytes ingested per 100 cells) came out at 24; the corrected phagocytic index (cP1), J32-3.2/FcγRIIA bulk transfectants, experiment 6 (erythrocytes ingested per 100 cells) came out at 9; the percent of cells that phagocytosed EA, FcγRIIA-infected D58 (Src+) cells came to 70 percent; the percent of cells that phagocytosed EA, FcγRIIA-infected SAR6 (Src-) cells worked out at 43 percent. In data set [5], this molecule yielded a phagocytic index (P1), J32-3.2/FcγRIIA bulk transfectants, experiment 2 (erythrocytes ingested per 100 cells) of 6; a phagocytic index (P1), J32-3.2/FcγRIIA bulk transfectants, experiment 3 (erythrocytes ingested per 100 cells) of 18; a phagocytic index (P1), J32-3.2/FcγRIIA bulk transfectants, experiment 4 (erythrocytes ingested per 100 cells) of 21; a phagocytic index (P1), J32-3.2/FcγRIIA bulk transfectants, experiment 6 (erythrocytes ingested per 100 cells) of 8. In [5], this molecule showed a phagocytic index (P1), J32/FcγRIIA bulk transfectants, experiment 1 (erythrocytes ingested per 100 cells) of 28; a phagocytic index (P1), J32/FcγRIIA bulk transfectants, experiment 2 (erythrocytes ingested per 100 cells) of 22; a phagocytic index (P1), J32/FcγRIIA bulk transfectants, experiment 3 (erythrocytes ingested per 100 cells) of 40; a phagocytic index (P1), J32/FcγRIIA bulk transfectants, experiment 4 (erythrocytes ingested per 100 cells) of 53. In [5], this molecule returned a phagocytic index (P1), J32/FcγRIIA bulk transfectants, experiment 5 (erythrocytes ingested per 100 cells) of 51 and a phagocytic index (P1), J32/FcγRIIA bulk transfectants, experiment 6 (erythrocytes ingested per 100 cells) of 21.

For Src, the “in vitro immune complex kinase assay: phosphorylation of FcγRIIA” value in data set [6] is “FcγRIIA was phosphorylated by Src in this in vitro assay”.

For Syk (enzyme), in data set [7], the enhancement of phagocytosis mediated by FcγRI/γ on co-transfection of Syk in COS-1 cells was 8 fold and the enhancement of phagocytosis mediated by FcγRIIIA/γ on co-transfection of Syk in COS-1 cells is 6.1 fold.

B1: M-CSF: hematopoietic growth factor, macrophage colony stimulating factor (protein, UniProt P09603 33-554, looked up)
Macrophage colony-stimulating …: EEVSEYCSHMIGSGHLQSLQRLIDSQMETSCQITFEFVDQEQLKDPVCYLKKAFLLVQDIMEDTMRFRDNTPNAIAIVQLQELSLRLKSCFTKDYEEHDKACVRTFYETPLQLLEKVKNVFNETKNLLDKDWNIFSKNCNNSFAECSSQDVVTKPDCNCLYPKAIPSSDPASVSPHQPLAPSMAPVAGLTWEDSEGTEGSSLLPGEQPLHTVDPGSAKQRPPRSTCQSFEPPETPVVKDSTIGGSPQPRPSVGAFNPGMEDILDSAMGTNWVPEEASGEASEIPVPQGTELSPSRPGGGSMQTEPARPSNFLSASSPLPASAKGQQPADVTGTALPRVGPVRPTGQDWNHTPQKTDHPSALLRDPPEPGSPRISSLRPQGLSNPSTLSAQPQLSRSHSSGSVLPLGELEGRRSTRDRRSPAEPEGGPASEGAARPLPRFNSVPLTDTGHERQSEGSFSPQLQESVFHLLVPSVILVLLAVGGLLFYRWRRRSHQEPQRADSPLEQPEGSPLTQDDRQVELPV
For the molecule B1, the “effect on splenic macrophage Fcγ receptors” value in data set [8] is “increase splenic macrophage Fcγ receptors”.

B2: hrM-CSF: Human recombinant macrophage colony stimulating factor (protein, UniProt P09603 33-554, looked up)
Macrophage colony-stimulating …: B1 Macrophage colony-stimulating …
Consider B2, for which the “proportion of isolated splenic macrophages that bound EA in vitro” value in data set [9] was found to be 80±7%. The “enhancement of the clearance of EA” value in data set [10] (adult male guinea pigs, 500 μg/kg for 5 days) was 72±5%. In addition, in data set [10] (guinea pig), the “days of treatment required for the effect” value is given as “at least 4 days” and the lowest effective dose stood at 0.25 mg/kg. For the same molecule, in data set [11] (250 μg/kg), the “increase in expression of FcγR1,2” value was 26±3%. In data set [11] (500 μg/kg for 5 days), the “increase in expression of splenic macrophage FcγR1,2” value turned out to be 81±6%. The “increase in expression of FcγR2” value in data set [12] (250 μg/kg) stood at 42±4%. Moreover, the “increase in expression of splenic macrophage FcγR2” value in [12] (500 μg/kg for 5 days) is 130±10%.

B3: IFN-γ: the cytokine interferon gamma (protein, UniProt P01579 24-161, looked up)
Interferon gamma: QDPYVKEAENLKKYFNAGHSDVADNGTLFLGILKNWKEESDRKIMQSQIVSFYFKLFKNFKDDQSIQKSVETIKEDMNVKFFNSNKKKRDDFEKLTNYSVTDLNVQRKAIHELIQVMAELSPAAKTGKRKRSQMLFRG
Regarding B3, in [13], the “effect on levels of FcγRI and FcγRII” value was “modulate the levels of FcγRI and FcγRII”.
